B1: 1022 (protein)
chain: MRKSRSLGLGLVKYILIVVALVGCIQTSPTMDESAINHQAQTIYLRGGFNGWSTATAFDRTEQAGIYVAKTKITMGNHGFKLAPADWSFAWVVSAHENQLVELNKSYRLNTAGGEEDSLFIETRGLYQFTLDITQANQPKLLVKLLSADSAKTPPPHYGEMTSLEFNRFNGEKVEAVFSAKATNNGLREYVHSTTQSLRDPVPSYSRYQEDIAHPRVRSGNIAFDALFALAVDEMKLNSVEQIKDGNYNNGQAIDCSCFETGEKWNYVWTRDLSYAAHLSLAQFDAQRVENSLLFKVSNLRASAPISPFLAGNAPYTQIIQDTGSGGSWPVSTDRMTWAFGATALLANLAEPQRSQFARKAFTALVNTIENDRLVAFDSHLGLYLGEQSFLDWREQSYASWIVDDLSSMSTAISLSTNAGHYQALVLAADLAGQLGDVPAAKKYKGWASALKNAINQHLWLEEKGLYSSLTSGHYHKVALEKFDWLGQSLAIVTGIASDEQARAILSSYPHGPMGAAVIFPQQPNIPVYHNRAIWPFVTAYGLNAAVKGKNVAVTQAALDTLTRAAALNLSNMENLEWLSSEPILLDKTHPQLSGPVINSKRQLWSVAAYLNLVSNTIFGAQPSQQGIEFRPFIPKSFKDQWFKHSQVINLINYQWRGKQFDLQLKFAPSNKKFGAYVVNRVKVNGLAHSGVLVEQALKQHNLIEIELVLDNTVDNNINLVDSEPLAFDPLVYAPLEPKLSVVAKANDYVIQIEDKGNANLTSAAIEYEIYRDGNLLTRVPAGAGVSQWLDKGQAQQAHCYAVAARFVKSQNQSHLSEVVCMGERMQIPVADQRIQSNKPKKILGEQLIFSQWGEADDTLQVHFSIDQPGKYAIQFNYHNPANAINLGISNGVKWLEVVNSSNQQSVKQAAVQFPHTRVDKTQFGDNLSTPVEIELAAGDYKLHLHDFYNMSYLQSNKTYTAAGGMKGISNKFDIYAVTFVLLPLK
modifications: Catenovulum agarivorans
B2: 1070 (protein, listed as Thermobaculum terrenum)
chain: MRKIIAQDPFTRNDPGIPWDQRGQWPASWVAARRLPSPPYVVAYRLAFVLPQAATATLHVTADERYELFLDSERVGRGSERGDADHWFYETYELELPAGPHTLVARVWSLGPLAPYAQLSVRHGFLLAAEPPLTEALSTGIAPWEAKRLEGYSWVNPSPAWGTGGNIALSAAQFPWGVERGEGDGWEPVEVVERAVGRLMALEAPPQHLLRPATLPAMLEVPIRVGRVRHVSAPSSEEVSSLPIRAEQALDEPEWQAMLEGRSSVTVPPHTTRRVIIDLEDYYCAYPELVTSGGEGGAVRLHWAESLYEDGRGRHKGDRDAIEGKYFRGVGDVFLPDGGDSRRFDTLWWQAGRYLELLVRTADSPLTVASLRLRETRYPLEMESAIATGDPDLDATIPLMVRAMQMCSHETYMDCPYYEQLMYAGDTRLEALVTYVMTRDDRLPRKALRMFDASRLASGLTQARYPSRVRQIIAPFALWWVAMVCDYAYWRPGTEYVRELMPGVRATMEAFERWRGSDGLLESPEGWNVTDWVPEWPAGIPPEGEWGRSGLLNWHLALVTRMVADLERALGNPQMAEHFGARAREIADAALRAFWVPSRGLMADDTACQRFSEHTQCLAILSGLLPPAIEEQVGRSLLEARDIARTTIYFSHYLFEACRKLGRVDVLLARLGLWRELVDKGLRTTIEAPEPTRSDCHAWGAHPLYHLFATFLGIRPAGLGFSAVEIAPQPAALRRLEGRLVHPRGDVWVAMEVDEEQIRARVRLPEAVPGVFCWGSRRVPLRPGEETDVVLPRAQG
B3: 1060 (protein, listed as Lunatimonas lonarensis)
chain: MTKTFKIGFLLLACVVFVSCSENPKQADCGLCESVGAKWIQVEKELPTEDSLFYLPNPAPLFRKEFGVESHFDSAKLFITAAGYYKATLNGEAIGKNILDPAWTDYTKRVYYAEYDLSAQIQEGTNCFGVSLGNGFYNPLPMRKWGRRNPREDLNVGKPTFIARLVLYYPNGKTKEISTDESWKYSYGPLIKNSVYLGVLYDKGMEIPGWDRPGFNDTGWKSVQVGKGPGGQLQAAFFPAVQVTEEIRPKSIHEIEKDVYIVDMGVNFTGTYKIRLAGNVGDTVTLRFGERLYEDGTLNPMTTVVGQIKAPGIGGPGSPAIAWQTSSYVVDTEPTWFSPDFTYHTFRYMEITGLQKPPLLTDITGLYFHTNVERESHFTSSNSLLNQIQDATTRTFLSNLISVQSDCAVREKFGYGGDLNATAESFIYNFDMRDIYRKTVYDWVDAINDSIFVDTAPFAGIKYCGISWESAYLITQYYLYLYYDETDLVHELYEDNLAWMDKVARIHPEGMVDSGLSDHESLEPVPVQLTGTAHYLQCAEIMETFASLKGDTKNQQRFAELSEKLRAIIKAEFWDKPVTERINRQTLFSTLLFHRIIPEDELGAARDSLVQAVKNGPSGQFNTGIFGTKYVLETLSESVPIDQVYAIVNSTKFPGWGHMISRGATTIWETWQESDNVFTNCHPMFGTVTEWYYRWLGGIRPDPKQPGFKAFVLAPRTPTGLDSISCSYRSPYGDIVSNWRRESGNSVVYDLIIPVGSVASVSLDMKAAQGLSITKDGKAFQPPVTDASTPGEFKLEGGNYKVVVSG
B4: 1005 (protein, listed as Enterococcus casseliflavus)
chain: MTKKWQATWIEPQQEPTRKEPPFSLADMFSGKKVVQDPPEERLLPPHYLKKIFTVENKSIKQASLTMTAHGIYQAKINGQAVSEAIFAPDYTSYTQYLQYQTYDVTHMLKEKNVWSVTLADGWYAGRVSVSGGSAQFGDRLGILGEIEIYYTDGTYEIIVTDEDFVSSHGKYVYSDLFIGEKQDLRLEKENWETDFDLTGFTKVSKADYGFDHLTPQRGPQVKRQEKLAAKSIWWEKDAVIVDFGQVIAGRVQLQIPLADGQEITIEHSEVLDREGHFFNNIVGRNKDQKDVFIGNGREACLEPDFTFHGFRYIKIDGLDVLPDKQSVWAYAIYSDMKATGSFTTSNQKINQLIENIQWSQKGNMLSIPTDCPQRERVGWTGDIQVFGPTATFFMDVYDFLGRWLDNVRLEQQADGQIVDYTPAPRDYFEGESLTGSLSSAGWGDAIVLLPWTLYQRYGKLEILVENYQAMKRWLSFSRKSAAGDKTDDKQYLWDTKFHFGDWMFPSFMIGEDAKGPMETAFVTKDLFGTAFLAHSSQLFAQISQLLDEEEENWSDFSNKVKAAFQKYYWRDDHLTADFQGSYVIALAFDLLDETASKAAAARLTELIIANNYCLDTGFLSIPYLLDVLCDYGYQELALKLLLQEECPSWLYEVNHGATTIWESWASIQPDGTVCDFSFNHYAFGCVGDWLVRRLAGLQVTEPGFTFFTISPLEQTAISSYHLNYTTAYGDIEIERSNDQFHLSVPQNTKAIFQYGETSKVLTSGKHHLTIKGEKIYE
B5: 994 (protein, listed as Catenulispora acidiphila)
chain: MLIRRRFATALALILAFAAVTPVASAAPSPSLSLSASSAGTEVSVSALQTDATTNPLGIDDPHPSLSWKLASQINGEYQSAYRIVVAGSQSDASAGVGSVWDSGEVASGNSVGIAYGGPALASEKTYYWAVQIWDEHGTASGWSAPAQWEMGLLNPGDWQGAQWISPTSASAASPLLRKDFTLAKPVARARAYVFGLGFYELHLNGGKVGDRVLEPASTPYAQRDLYAAYDVTGTVKQGGNAVGLWLGNGYDANFSQYGFRWLGPKQAIVLIDVTFSDGTHQAVTSDGSWTWSPSPITADGIYNGESYDARMVQPGWDAAGFSASSLQPVRTVAAPGGSLVADAMPPIRVTQTLNAVKLTSPSPGVYVYDFGQNVSGWEVLRTQGAAGSTVKMQTAEDLLANGTIDTTTNRNALSTDSYTLAGTGSTETYEPRFTYHGFRYVEVTGDPQTPVVSSLQARVVHADLASTSTFSSSDATLNQIWQNNQRTMLNNQMSTPTDNPVRDERTPPGMDVQAYHDASTAEFGMDTYYANYLRDMPPGTALPSDGGNAQQPDMGGDQVTLAWTLYQQYGDIATLAAMYPLMKKFVDTNATNVPGHIWSTGFGDWCPPDHSSNANGGMGNPSAGACTSEVPIVNTALSYLQASDVAKAATALGQAGDAAHYTQLAGDIANAFNAAFLNSDHASYGDGRETTSILPLAFGMVPAADVPAVGARLVDTVVRGNGGHLDTGIFGTRYLMDALAGIGRTDLAMTVLDQGTYPGYGFEIGKGATTDWEEWTYASSMESHDHAMFAGINASFASRLAGIEPTGPGYSTVSIAPQIPAGLQSVAASVSTVRGTVASSWSVSGGKVTMDVTVPVGATASVRVPSFGQGSVTTVSPAGAGAVQVSAGGTSSTYTVGSGSWEFTGSLVPASSTVLPGTWTQCAVETGNCSVAGTETVAFGAQGKYDYATVSGTVACSNTVFGDPDSGVSKACYAEPAPATTPGAWQQCAAETATCSFAGTETVAFGAQGKYTYATLTGGTPCTTTIFGDPAYGIPKSCFIEAPPPAATTWIPCAAETATCTLTASRDVAFGAHGDYAYRTANAPTTCTNAVFGDPAPGAVKACYLQ
B6: 1049 (protein, listed as Chitinophaga pinensis)
chain: MKQCMGIWLLFLSLQTWGQQLQVVHLRTDNKTNPLGCQLSPRLSWQLSASYNNCVQQAYQLQFSDDSTTLNSKKHTGKHVESADPFLTLPAAFAGITLLPAHTYYWRVQVWDKAGRPSGWSEVASFINALNGPADWKGAKWIGYEDVVDSMRVVPGVHNGTDKFYQKHKARQRTIVPLFRKAFSVQGKVKSALLYISGLGQYEASLNGVRLGDNFLAPGWTHYDETALYNTYDLTNVLQAGENALGVIVGNGFFNVNKERYRKLSVVYGMPRMICRLLITYENGKTTNIVSGTDWRTSASPITFTSIYGGEDYDAGKEQSGWDQPGFNDTEWKPAIVVKATEKRLLPEEDYPVKVMEVLPVRRITQPQPAVYMYDFGQNASGIIGLKIKGKKGQTVKLIPAELTNDKQLANQKATGSPYYFSYTLKGDGIETWQPRFSYYGFRYVQVEGAAPDTAVHTGDVPEIISLELLHTRNAAPVNGTFSCSNDLFNRIHTLILWAIKSNMQSVLTDCPHREKLSWLEQDYLMGNAIQYSYDIDLLYRKLIRDMKEAQTGEGLVPDIAPEFVFFDDHGFGFRDSPEWGSAGVIVPWLHYRWYGDKTVISDAYPMVKKYVAYLGAKAQHNILSYGLGDWFDNGPQRPGVAQLTPKGVTATAIYYYDLVLAGNMADLLGKTAEAKAFRVQADKVKATFNGEYFHTGTKVYSTGSQTAMAMPLCVGLVEEQYRQAVFSNMVDSIRQQRNQLTAGDIGFHFLVQALQEGGASDLLYEMNNRSDVPGYGFQLAKGATTLTESWAALEQVSNNHLMLGHLLEWFYTGLGGITQQAGSIGYKQLQICPEVVGDITWVKTSYNTPYGTVRSEWEKKDGGMLFRISIPPNSNAIVKLPAKREGRITADGKPLNNQDLSFEKERVVMYLGSGDYEFSTFK

Tests used:
Type in all cases: biochemical, Quillaja saponaria
[1] = Experiment 6-1: screening of rhamnosidases for derhamnosylation of saponins in treated bark extract (2%), desglucosyl-QS-17 2134 to QS-21 1988 (PAR %); conditions: TBE 2%, pH 7.5, 30 degC, 18 h; TIC peak area ratio percent, LCMS/MS; negative controls 2.719, 2.158
[2] = Experiment 6-1: screening of rhamnosidases for derhamnosylation of saponins in treated bark extract (2%), QS-17 2310 to QS-18 2164 (PAR %); conditions: TBE 2%, pH 7.5, 30 degC, 18 h; TIC peak area ratio percent, LCMS/MS; negative controls 3.061, 2.429
[3] = Experiment 6-1: specificity of rhamnosidases towards other rhamnose residues (C3 saccharide rhamnose, C28 saccharide rhamnose); conditions: TBE 2%, pH 7.5, 30 degC, 18 h; LCMS/MS; negative controls 0.18, 0.17
[4] = Experiment 6-1: screening of rhamnosidases for derhamnosylation of saponins in treated bark extract (2%), QS-17 2296 to QS-18 2150 (PAR %); conditions: TBE 2%, pH 7.5, 30 degC, 18 h; TIC peak area ratio percent of rhamnosylated starting saponin to derhamnosylated product, LCMS/MS; negative controls 4.876, 5.225

Row | Molecule | Peak75 (PAR %) [1] | Peak57 (PAR %) [2] | ratio PP/QS-21 [3] | QS-17 (PAR %) [4]
1 | B1 | 2.368% | 2.882% | 0.15 | 5.190%
2 | B2 | 2.275% | 3.311% | 0.18 | 5.168%
3 | B3 | 2.382% | 2.888% | 0.15 | 5.159%
4 | B4 | 2.767% | 2.799% | 0.17 | 5.166%
5 | B5 | 2.147% | 3.300% | 0.16 | 5.177%
6 | B6 | 2.417% | 2.271% | 0.18 | 5.211%

— patent publication US20240026407A1, “MODIFICATION OF SAPONINS” (GLAXOSMITHKLINE BIOLOGICALS SA, priority 2020, published 2024)
